Reference: patent publication US20090238823A1 (published 2009)

T1: Cynomolgus TSLP (mammalian produced) (cynomolgus)
T1 construct: The Biacore construct is not specified beyond mammalian production; also called Cyno TSLP; cynomolgus TSLPwtpHF
T1 chain: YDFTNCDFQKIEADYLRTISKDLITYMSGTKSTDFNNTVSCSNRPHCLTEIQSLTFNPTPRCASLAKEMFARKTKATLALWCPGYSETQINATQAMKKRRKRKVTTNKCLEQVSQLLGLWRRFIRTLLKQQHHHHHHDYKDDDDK

T2: Murine TSLP (murine, UniProt Q9JIE6 20-140)
T2 construct: also called Mu TSLP
T2 sequence (looked up): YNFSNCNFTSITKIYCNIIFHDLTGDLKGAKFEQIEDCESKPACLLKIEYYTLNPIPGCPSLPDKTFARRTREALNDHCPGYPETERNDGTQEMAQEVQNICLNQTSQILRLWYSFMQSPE


Columns and labels:
[1] = molecular target: T3, Human TSLP (mammalian produced) (human, UniProt Q969D9 29-159); test: SPR (Biacore 3000), antibody captured by anti-human Fc gamma, TSLP in solution, 25 C
T3 construct: also called Hu TSLP; huTSLPwtpHF
Description: (§1) The surface plasmon resonance experiments described in this patent application were conducted at 25° C. using a Biacore 3000 instrument (Biacore International AB, Uppsala, Sweden) equipped with a CM4 sensor chip. Anti-Fcγ specific capture antibodies were covalently immobilized to two flow cells on the CM4 chip using standard amine-coupling chemistry with HBS-EP as the running buffer. Briefly, each flow cell was activated with a 1:1 (v/v) mixture of 0.1 M NHS and 0.4 M EDC. AffiniPure Goat Anti-Human IgG, Fcγ Fragment Specific antibody (Jackson ImmunoResearch Inc. West Grove, Pa.) at 30 ug/ml in 10 mM sodium acetate, pH 5.0 was immobilized with a target level of 3,000 RUs on two flow cells. Residual reactive surfaces were deactivated with an injection of 1 M ethanolamine. The running buffer was then switched to HBS-EP+0.1 mg/ml BSA for all remaining steps.
(§2) The following antibodies were tested. […] No antibody was captured on the control flow cell surface. Human, cyno, or murine TSLP at various concentrations, along with buffer blanks were then flown over the two flow cells. The concentration ranges for human and cyno TSLP were from 0.44-100 nM while the concentration range for murine TSLP was from 8.2-6000 nM. A flow rate of 50 ul/min was used and a 2 minute association phase followed by a 10-30 minute dissociation phase. After each cycle the surfaces were regenerated with a 30 second injection of 10 mM glycine pH 1.5. Fresh antibody was then captured on the test flow cell to prepare for the next cycle.

[2] = molecular target: T1, Cynomolgus TSLP (mammalian produced); test: as above
Description: as §1, §2

Murine TSLP [3] = molecular target: T2, Murine TSLP; test: as above
Description: as §1, §2

Murine TSLP [4] = molecular target: T2, Murine TSLP; test: SPR (Biacore 3000), antibody captured by anti-human Fc gamma, TSLP in solution

Row | Binder | Kd [1] [nM] | koff [1] [s⁻¹] | Kd [2] [nM] | Kd (Murine TSLP [3]) [nM] | koff [2] [s⁻¹] | binding result (Murine TSLP [4])
1 | A4 IgG4 (antibody, V domains shown, also called L4H4) VH: QVQLVQSGAEVKKPGASVKVSCKASGYIFTGDYMHWVRQAPGQGLEWMGWINPNSGGTNHARKFQGRVTMTRDTSISTAYMELSRLRSDDTAVYYCVRDRGTSGWPLFDYWGQGTLVTVSS VL: QSVLTQPPSVSGAPGQRVTISCTGSSSNIGAGFDVHWYQLLPGTAPKLLIFDNNNRPSGVPDRFSGSKSGTSASLAITGLQAEDEADYYCQSYDSNLSGSIVVFGGGTKLTVL | 0.34 | 0.00033 | – | – | – | –
2 | A5 IgG2 (antibody, V domains shown, also called L5H5) VH: QMQLVESGGGVVQPGRSLRLSCAASGFTFRTYGMHWVRQAPGKGLEWVAVIWYDGSNKHYADSVKGRFTITRDNSKNTLNLQMNSLRAEDTAVYYCARAPQWELVHEAFDIWGQGTMVTVSS VL: SYVLTQPPSVSVAPGQTARITCGGNNLGSKSVHWYQQKPGQAPVLVVYDDSDRPSWIPERFSGSNSGNTATLTISRGEAGDEADYYCQVWDSSSDHVVFGGGTKLTVL | – | – | 0.0512 | 377 | – | –
3 | A2 IgG1 (antibody, V domains shown, also called L2H2) VH: EVQLVESGGVVVQPGGSLRLSCAASGFTFDDFTMHWVRQAPGKGLEWVSLISWDGGSTYYADSVKGRFTISRDNSKNSLYMQMNSLRTEDSALYYCARGPYYYFYGMDVWGQGTTVTVSS VL: SSELTQDPAVSVALGQTVRITCQGDSLRTYYASWYQQKPGQAPILVISDKNNRPSGIPDRFSGSSSGNTASLTITGAQAEDEADYYCNSRDSSDNHLVVFGGGTKLTVL | 0.203 | 0.000349 | 0.0468 | – | 0.000104 | –

Now from value to binder, other results behind:

Row | Kd [1] [nM] | koff [1] [s⁻¹] | Kd [2] [nM] | Kd (Murine TSLP [3]) [nM] | koff [2] [s⁻¹] | Binder | binding result (Murine TSLP [4])
4 | 0.17 | 0.00027 | – | – | – | A3 IgG4 (antibody, V domains shown, also called L3H3) VH: QVQLVQSGAEVKKPGASVKVSCKASGYTFTDYYMYWVRQAPGQGPEWMGWINPNSGGTNYVQKFQGRVTMTRDTSISTAYMELSRMRSDDTAVYYCARDGGSSGWPLFAYWGLGTLVTVSS VL: QSVLTQPPSVSGAPGQRVTISCTGSSSNIGAGFDVHWYQQLPGTAPKLLIYDNNNRPSGVPDRFSGSKSGTSASLAITGLQAEDEADYYCQSYDSNLSGSIVVFGGGTKLTVL | –
5 | 0.157 | 0.000285 | 0.0376 | – | 9.42e-05 | A2 IgG2 (antibody, V domains shown, also called L2H2) VH: EVQLVESGGVVVQPGGSLRLSCAASGFTFDDFTMHWVRQAPGKGLEWVSLISWDGGSTYYADSVKGRFTISRDNSKNSLYMQMNSLRTEDSALYYCARGPYYYFYGMDVWGQGTTVTVSS VL: SSELTQDPAVSVALGQTVRITCQGDSLRTYYASWYQQKPGQAPILVISDKNNRPSGIPDRFSGSSSGNTASLTITGAQAEDEADYYCNSRDSSDNHLVVFGGGTKLTVL | no binding (tested: murine TSLP 8.2-6000 nM)
